The target of this experiment is T1, murine IL-11 (mouse) (UniProt P47873).
T1 sequence (looked up): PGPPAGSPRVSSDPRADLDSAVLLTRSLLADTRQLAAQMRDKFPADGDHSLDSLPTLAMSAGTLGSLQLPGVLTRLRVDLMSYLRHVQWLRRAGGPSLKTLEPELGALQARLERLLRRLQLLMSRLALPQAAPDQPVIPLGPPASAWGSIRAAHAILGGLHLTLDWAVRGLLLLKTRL
The experiment can be described thus: ELISA binding signal.

B1: YU100-H02 (scFv)
scFv: QVQLQQSGGGVVQPGRSLRLSCAASGFTFSSYGMHWVRQAPGKGLEWVAVISYDGSNKYYADSVKGRFTISRDNSKNTLYLQMNSLRAEDTAVYYCARIMGYDYGDYDVVDYWGQGTLVTVSSGSASAPKLEEGEFSEARVQSALTQPRSVSRSPGQSVTISCTGTSSDVGTYNYVSWYQQHPGKAPKLMIYDVSKRPSGVPDRFSGSKSGNTASLTISGLQAEDEADYYCCSYAGFYTWVFGGGTKLTVL
The molecule B1 showed a mIL11 - average signal of 0.188.

B2: YU112-F05 (scFv)
scFv: EVQLVQSGGGVVQPGRSLRLSCAASGFTFGSYGMHWVRQAPGKGLEWVAVISYDGSNKYYADSVKGRFTISRDNSKNTLYLQMNSLRAEDTAVYYCAKIGATDPLDYWGQGTLVTVSSGSASAPKLEEGEFSEARVQSALTQPRSVSGSPGQSVTISCTGTSSDVGGYNYVSWYQQHPGKAPKLIIYDVNNRPSGVSNRFSASKSGNTASLTISGLQAEDEADYYCNSYTSGSTWVFGGGTKLTVL
Take B2: the mIL11 - average signal was determined as 0.601.

B3: YU100-A11 (scFv)
scFv: EVQLQQSGGGVVQPGRSLRLSCAASGFTFSSYGMHWVRQAPGKGLEWVAVISYDGSNKYYADSVKGRFTISRDNSKNTLYLQMNSLRAEDTAVYYCAKIGATDPLDYWGQGTLVTVSSGSASAPKLEEGEFSEARVQSALTQPRSVSGSPGQSVTISCTGTSSDVGGYNYVSWYQQHPGKAPKLMIYDVSKRPSGVPDRFSGSKSGNTASLTISGLQAEDEADYYCCSYAGSYTWVFGGGTKLTVL
On to B3, for which the mIL11 - average signal came out at 0.372.

B4: YU100-E07 (scFv)
scFv: QVQLQESGGGVVQPGRSLRLSCAASGFTFSSYGMHWVRQAPGKGLEWVAVISYDGSNRYYADSVKGRFAISRDNSKNTLYLQMNSLRAEDTAVYYCAKIGATDPLDYWGQGTLVTVSSGSASAPKLEEGEFSEARVQSALTQPRSVSGSPGQSVTISCTGTSSDVGGYDYVSWYQQHPGKAPELMIYDVTKRPSGVADRFSGSKSGNTASLTISGLQAEDEADYYCCSYAGRYTWVFGGGTKLTVL
In the case of B4, the mIL11 - average signal was 0.247.

(Values after US20180186871A1.)
